The values that follow come from patent publication US20240101645A1 (HENRY M JACKSON FOUNDATION FOR THE ADVANCEMENT OF MILITARY …, published 2024).

Experiment [1] has as its target SARS-CoV-1 spike antigens (bead panel) (SARS-CoV-1, UniProt P59594 14-1195). The experiment in a line: multiplex bead assay.
The target of experiment [2] is T1, HCoV-NL63 spike antigens (bead panel) (HCoV-NL63, UniProt Q6Q1S2 19-1296).
T1 sequence: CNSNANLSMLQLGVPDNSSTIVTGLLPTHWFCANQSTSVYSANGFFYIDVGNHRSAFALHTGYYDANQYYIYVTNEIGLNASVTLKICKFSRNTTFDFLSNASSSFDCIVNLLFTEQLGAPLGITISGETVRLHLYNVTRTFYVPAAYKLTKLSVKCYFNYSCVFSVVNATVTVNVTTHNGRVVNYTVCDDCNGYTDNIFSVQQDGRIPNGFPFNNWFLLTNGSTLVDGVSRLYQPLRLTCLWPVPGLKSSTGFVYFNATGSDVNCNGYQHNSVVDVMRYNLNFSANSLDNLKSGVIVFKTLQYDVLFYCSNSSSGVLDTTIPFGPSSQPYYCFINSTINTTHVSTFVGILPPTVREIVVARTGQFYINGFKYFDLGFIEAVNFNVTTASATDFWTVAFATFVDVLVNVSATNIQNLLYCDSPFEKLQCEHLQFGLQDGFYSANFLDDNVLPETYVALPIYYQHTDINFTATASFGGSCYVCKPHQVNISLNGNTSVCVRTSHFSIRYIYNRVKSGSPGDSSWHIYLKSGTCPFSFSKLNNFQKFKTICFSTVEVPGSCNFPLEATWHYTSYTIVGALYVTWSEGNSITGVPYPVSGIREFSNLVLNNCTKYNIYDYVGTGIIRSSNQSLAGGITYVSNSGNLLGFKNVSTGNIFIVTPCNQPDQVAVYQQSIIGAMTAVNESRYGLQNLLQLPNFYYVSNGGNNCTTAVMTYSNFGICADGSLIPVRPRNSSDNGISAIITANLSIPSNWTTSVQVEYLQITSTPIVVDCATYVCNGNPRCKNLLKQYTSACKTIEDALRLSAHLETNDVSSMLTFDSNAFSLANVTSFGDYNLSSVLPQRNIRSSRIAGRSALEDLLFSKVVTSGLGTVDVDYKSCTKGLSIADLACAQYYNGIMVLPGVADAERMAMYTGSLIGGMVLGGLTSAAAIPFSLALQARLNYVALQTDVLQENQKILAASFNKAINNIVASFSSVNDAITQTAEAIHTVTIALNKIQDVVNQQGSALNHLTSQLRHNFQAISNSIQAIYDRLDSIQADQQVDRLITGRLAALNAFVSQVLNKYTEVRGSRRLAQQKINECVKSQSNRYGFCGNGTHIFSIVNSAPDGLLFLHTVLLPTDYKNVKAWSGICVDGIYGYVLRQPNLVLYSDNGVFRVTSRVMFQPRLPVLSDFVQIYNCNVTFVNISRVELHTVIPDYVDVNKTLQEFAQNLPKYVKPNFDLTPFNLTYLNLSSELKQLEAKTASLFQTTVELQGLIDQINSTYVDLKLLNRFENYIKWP
The experiment in a line: multiplex bead assay.

Experiment [3] addresses T2, HCoV-OC43 spike antigens (bead panel) (HCoV-OC43, UniProt P36334 14-1297).
T2 sequence: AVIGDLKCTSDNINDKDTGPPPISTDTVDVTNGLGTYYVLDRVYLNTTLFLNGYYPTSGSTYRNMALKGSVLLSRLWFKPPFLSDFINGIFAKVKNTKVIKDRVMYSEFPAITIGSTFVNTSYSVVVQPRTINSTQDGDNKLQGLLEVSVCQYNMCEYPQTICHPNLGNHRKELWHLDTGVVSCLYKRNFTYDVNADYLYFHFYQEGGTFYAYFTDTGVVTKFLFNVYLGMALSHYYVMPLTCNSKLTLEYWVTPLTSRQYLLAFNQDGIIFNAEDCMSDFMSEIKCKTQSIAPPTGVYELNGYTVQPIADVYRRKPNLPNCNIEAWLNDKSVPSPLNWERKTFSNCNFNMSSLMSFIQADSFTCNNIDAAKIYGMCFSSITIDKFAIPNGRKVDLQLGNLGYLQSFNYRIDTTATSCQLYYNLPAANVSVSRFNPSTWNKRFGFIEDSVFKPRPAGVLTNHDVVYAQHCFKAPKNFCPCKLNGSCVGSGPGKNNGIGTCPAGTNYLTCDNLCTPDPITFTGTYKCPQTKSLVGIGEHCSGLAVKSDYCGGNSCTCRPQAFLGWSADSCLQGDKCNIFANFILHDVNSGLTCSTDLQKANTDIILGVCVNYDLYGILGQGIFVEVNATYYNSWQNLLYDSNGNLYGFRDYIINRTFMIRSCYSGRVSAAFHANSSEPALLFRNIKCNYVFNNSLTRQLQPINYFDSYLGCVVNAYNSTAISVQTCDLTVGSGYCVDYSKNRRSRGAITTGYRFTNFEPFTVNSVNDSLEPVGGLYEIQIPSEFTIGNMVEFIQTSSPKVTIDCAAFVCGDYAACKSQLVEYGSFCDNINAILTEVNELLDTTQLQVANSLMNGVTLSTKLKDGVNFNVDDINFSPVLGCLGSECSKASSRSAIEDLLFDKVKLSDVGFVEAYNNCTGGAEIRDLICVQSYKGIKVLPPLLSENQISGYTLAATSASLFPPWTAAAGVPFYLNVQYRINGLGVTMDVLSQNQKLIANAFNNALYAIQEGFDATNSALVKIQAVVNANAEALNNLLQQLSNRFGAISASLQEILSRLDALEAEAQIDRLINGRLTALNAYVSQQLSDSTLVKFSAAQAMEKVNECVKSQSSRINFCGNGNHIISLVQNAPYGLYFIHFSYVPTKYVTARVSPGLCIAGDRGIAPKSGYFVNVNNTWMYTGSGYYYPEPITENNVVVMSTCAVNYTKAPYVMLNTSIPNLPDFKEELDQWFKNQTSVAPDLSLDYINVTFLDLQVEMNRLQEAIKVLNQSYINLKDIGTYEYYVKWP
The experiment in a line: multiplex bead assay.

For experiment [4], the target named is SARS-CoV-2 S on pseudovirions (Wuhan Hu-1 / IL1/2020, last 18 amino acids removed) (SARS-CoV-2, UniProt P0DTC2 14-1273). The experiment in a line: cell-based or functional assay.

B1: COV_2172 (SEQ ID NO:872/877) (antibody, V domains shown)
VH: EVQLVESGGGVVQPGRSLRLSCAPSGFTFSTYAMHWVRQAPGKGLEWVAVISYDGSIKYYADSVKGRFTISRDNTMNTVFLQMNSLRAEDTAVYFCAKGGERWELFTSFDYWGQGTQVTVSS
VL: QSALTQPRSVSGSPGQSVTISCTGTSSDVGGYNYVSWYQQHPGKAPKLMIYDVSKRPSGVPDRFSGSKSGNTASLTISGLQAEDEADYYCCSYAGSYTFVFGGGTKLTVLG
Turning to B1, the binding result in experiment [1], in experiment [2] and in experiment [3] was “no binding” each time. Also, the “Mean IC50, pSV neutralization” value in experiment [4] stood at 3.99 µg/ml. For the same molecule, in experiment [4], the “Mean IC80, pSV neutralization” value was at least 25 µg/ml.

B2: COV_1149 (antibody, V domains shown)
VH: QVQLVESGGGVVQPGRSLRLSCAASGFTFSSYGMHWVRQAPGKGLEWVAVISYDGSNKYYADSVKGRFTISRDNSKNTLYLQMNSLRAEDTAVYYCAKTGGGYSYGLGNVWGQGTLVTVSS
VL: QSALTQPASVSGSPGQSITISCTGTSSDVGGYNYVSWYQQHPGKAPKLMIYDVSNRPSGVSNRFSGSKSGNTASLTISGLQAEDEADYYCSSYTSSSTLVVFGGGTKLTVLG
notes: human IgG1
As to B2, the binding result in experiment [1], in experiment [2] and in experiment [3] was “no binding” throughout. Further, the “Mean IC50, pSV neutralization” value in experiment [4] was at least 25 µg/ml. Besides, the “Mean IC80, pSV neutralization” value in experiment [4] was at least 25 µg/ml.

B3: COV_2025 (antibody, V domains shown)
VH: QVHLVQSGAEVKKPGASVKVSCKVSGYTLVELSVHWVRQAPAKGLEWIGGFDPEDGETIYAQKFQGRVTMTEDTSTDTAYMELTNLRSEDTAVYYCVTSQPFVSPNWFDPWGQGTLVTVSS
VL: QSALTQPASVSGSPGQSITISCTGTSRDVGAYNYVSWYQQHPGKAPKLMIYEVTTRPSGVSNRFSGSKSGNTASLTISGLQAEDEADYYCSSYTGSRTLVFGTGTKVTVL
notes: human IgG1
As for B3, the binding result in experiment [1], in experiment [2] and in experiment [3] was “no binding” in each case. Besides, the “Mean IC50, pSV neutralization” value in experiment [4] came to 0.02 µg/ml. In addition, the “Mean IC80, pSV neutralization” value in experiment [4] came to 0.49 µg/ml.

B4: COV_2014 (antibody, V domains shown)
VH: QVQLVQSGAEVKKPGASVKVSCKVSGYTLTELSMHWVRQAPGKGLEWMGGFDPEDGETIYAQKFQGRVTMTEDTSTDTAYMELSSLRSEDTAVYYCATGKINYYDSSGYYGTFDYWGQGTLVTVSS
VL: AIQLTQSPSSLSASVGDRVTITCRASQGISSYLAWYQQKPGKAPKLLIYAASTLQSGVPSRFSGSGSGTDFTLTISSLQPEDFATYYCQQLNSYHLTFGQGTRLEIK
notes: human IgG1
On to B4, for which the binding result in experiment [1], in experiment [2] and in experiment [3] was “no binding” throughout. Moreover, in experiment [4], the “Mean IC50, pSV neutralization” value is at least 25 µg/ml. The “Mean IC80, pSV neutralization” value in experiment [4] was at least 25 µg/ml.

B5: COV_2039 (antibody, V domains shown)
VH: QVQLVQSGAEVKKPGASVKVSCKVSGYMLIELSMHWVRQAPGKGLEWMGGFDPEDAETIYAQEFQGRVTMTEDTSTDTAYMELSSLRSEDTAVYYCTTGPAVTNRPADYWGPGTLVTVSS
VL: QSVLTQPPSVSGAPGQRVTISCTGSSSNIGASYDVHWYQQLPGTAPKLLIYANSNRPSGVPDRFSGSKSGTSASLAITGLQAEDEADYYCQSYDSSLSYSVVFGGGTKLTVL
notes: human IgG1
Turning to B5, the binding result in experiment [1], in experiment [2] and in experiment [3] was “no binding” in each case. Further, the “Mean IC50, pSV neutralization” value in experiment [4] is 0.01 µg/ml. Moreover, the “Mean IC80, pSV neutralization” value in experiment [4] is 1.8 µg/ml.

B6: COV_3077 (antibody, V domains shown)
VH: QVQLQESGPGLVKPSETLSLTCAVSGYSISSGYYWGWIRQPPGKGLEWIGSIYHSGSTYYNPSLKSRVTISVDTSKNQFSLKLSSVTAADTAVYYCARALYDAFDIWGQGTMVTVSS
VL: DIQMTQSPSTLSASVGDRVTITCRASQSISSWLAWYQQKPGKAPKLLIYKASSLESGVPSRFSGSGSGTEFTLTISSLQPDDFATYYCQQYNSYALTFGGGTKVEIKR
notes: human IgG1
For the molecule B6, the binding result in experiment [1], in experiment [2] and in experiment [3] was “no binding” in each case. In addition, the “Mean IC50, pSV neutralization” value in experiment [4] is at least 25 µg/ml. Further, the “Mean IC80, pSV neutralization” value in experiment [4] was at least 25 µg/ml.

B7: COV_2008 (antibody, V domains shown)
VH: QVRVVQSGAEVKNPGASVKVSCKVSGYTLTELSIHWVRQAPGNGLEWMGGFDPEDGETIYAQKFQGRVTMTEDTSTDTAYMELSSLRSDDTAVYYCATAGAITGTPRNFYYYYGMDVWGQGTTVTVSS
VL: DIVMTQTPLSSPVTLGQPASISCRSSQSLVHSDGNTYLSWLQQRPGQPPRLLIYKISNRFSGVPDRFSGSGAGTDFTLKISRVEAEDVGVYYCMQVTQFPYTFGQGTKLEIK
notes: human IgG1
For B7, the binding result in experiment [1], in experiment [2] and in experiment [3] was “no binding” in each case. Further, in experiment [4], the “Mean IC50, pSV neutralization” value was 0.02 µg/ml. Besides, the “Mean IC80, pSV neutralization” value in experiment [4] is 0.31 µg/ml.

B8: COV_2056 (SEQ ID NO:792/797) (antibody, V domains shown)
VH: EVQLVESGGGVVQPGRSLRLSCAASGFTFSIYGMHWVRQAPGKGLEWVALISYDGTNKYYADSVKGRFSISRDDSKNTLYLQMNSLRPEDTAVYYCAKVLMMGDSSGFSLGDAFDIWGQGTMVTVSS
VL: DIQMTQSPSSVSASVGDRVTITCRASQGISNWLAWYQQKPGKAPKLLIYAASSLQSGVPSRFSGSVSGTDFTLTISSLQPEDFATYYCQQANSFPLTFGGGTKVDIKR
Consider B8, for which the binding result in experiment [1], in experiment [2] and in experiment [3] was “no binding” each time. Moreover, the “Mean IC50, pSV neutralization” value in experiment [4] was 7.46 µg/ml. In addition, the “Mean IC80, pSV neutralization” value in experiment [4] is at least 25 µg/ml.

B9: COV_2174 (antibody, V domains shown)
VH: EVQLAESGGGLVKPGGSLRLSCAASGFTFSDYYMSWIRQAPGKGLEWVSYISSSGSTIYYADSVKGRFTISRDNAKNSLYLQMNSLRAEDTAVYYCARDWSVVVVPAAPAVDVWGQGTTVTVSS
VL: DIQMTQSPSSLSASVGDRVTITCRASQGISNYLAWFQQKPGKAPKSLIYAASSLQSGVPSKFSGSGSGTDFTLTISSLQPEDFATYYCQQYNSYPLTFGGGTKVEIKR
notes: human IgG1
As for B9, the binding result in experiment [1], in experiment [2] and in experiment [3] was “no binding” each time. For the same molecule, the “Mean IC50, pSV neutralization” value in experiment [4] turned out to be 0.502 µg/ml. For the same molecule, the “Mean IC80, pSV neutralization” value in experiment [4] turned out to be 2.04 µg/ml.
